The values below come from patent US20180072810A1 (published 2018).

For orientation: EC50 means the concentration giving half of the maximal effect. Lower therefore signals greater potency.

This assay concerns the target T1, cynomolgus PD-1 Fc fusion (cynomolgus monkey, UniProt B0LAJ3 25-170).
T1 construct: also called Cyno PD-1 (ELISA)
The assay can be described thus: ELISA on plate-bound cynomolgus PD-1 Fc fusion. For orientation: In an ELISA, binding on a coated surface is turned into a signal by an enzyme label.

T1 sequence (B0LAJ3 entry or part of it limits assumed, form in doubt): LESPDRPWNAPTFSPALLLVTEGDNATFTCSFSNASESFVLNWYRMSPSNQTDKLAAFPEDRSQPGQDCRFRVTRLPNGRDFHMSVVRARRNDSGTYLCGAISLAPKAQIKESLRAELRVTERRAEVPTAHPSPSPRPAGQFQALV

B1: Nivolumab (antibody, V domains shown)
VH: QVQLVESGGGVVQPGRSLRLDCKASGITFSNSGMHWVRQAPGKGLEWVAVIWYDGSKRYYADSVKGRFTISRDNSKNTLFLQMNSLRAEDTAVYYCATNDDYWGQGTLVTVSS
VL: EIVLTQSPATLSLSPGERATLSCRASQSVSSYLAWYQQKPGQAPRLLIYDASNRATGIPARFSGSGSGTDFTLTISSLEPEDFAVYYCQQSSNWPRTFGQGTKVEIK
Consider B1, for which the response was half-maximal at 0.07 nM (EC50).
